Molecular target: Escherichia coli RNA polymerase holoenzyme with σ^70, in the initially stalled complex (E. coli) (UniProt P00579)
Chain of UniProt P00579 (P00579 whole entry, looked up, one chain of several): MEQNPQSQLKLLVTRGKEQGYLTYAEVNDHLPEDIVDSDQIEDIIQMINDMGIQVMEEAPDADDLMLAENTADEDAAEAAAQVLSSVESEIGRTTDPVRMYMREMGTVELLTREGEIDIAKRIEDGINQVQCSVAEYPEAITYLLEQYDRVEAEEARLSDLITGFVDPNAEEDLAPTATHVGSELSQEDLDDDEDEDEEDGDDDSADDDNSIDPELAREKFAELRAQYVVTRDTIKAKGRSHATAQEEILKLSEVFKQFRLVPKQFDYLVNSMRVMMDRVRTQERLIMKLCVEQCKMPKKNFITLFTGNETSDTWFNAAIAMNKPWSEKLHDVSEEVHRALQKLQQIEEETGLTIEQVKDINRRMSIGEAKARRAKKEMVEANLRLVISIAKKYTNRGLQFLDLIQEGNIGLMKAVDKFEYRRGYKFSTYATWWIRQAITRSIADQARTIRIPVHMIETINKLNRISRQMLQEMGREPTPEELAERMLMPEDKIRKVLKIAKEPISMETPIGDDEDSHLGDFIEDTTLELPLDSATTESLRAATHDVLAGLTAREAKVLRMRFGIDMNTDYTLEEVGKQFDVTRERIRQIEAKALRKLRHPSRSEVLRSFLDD

Work on “Rho (ρ) transcription termination factor, wild type (from UniProt P0AG30 1-419) (enzyme)” yielded a time constant of the decrease of stand-by TE as the interval between ISC washing and NTP injection is prolonged of 693 s.

— paper PMC8964686
